One may read the stoichiometry N as the number of molecules, sites or subunits per partner or assembly.

Two proteins from PMC4876015 (Structure (London, England : 1993), 2016) can be followed below.

Data set [1] concerns the molecule itself. In words: SDS-PAGE of the folded channel.
Data set [2] concerns the molecule itself. As to the kind of experiment: crystal structure.

B1: KcsA V76ester channel (semisynthetic, full length) (natural protein, UniProt P0A334 1-160, looked up)
chain: MPPMLSGLLARLVKLLLGRHGSALHWRAAGAATVLLVIVLLAGSYLAVLAERGAPGAQLITYPRALWWACETATTVGYGDLCPVTLWGRLVAVVVMVAGITSFGLVTAALATWFVGREQERRGHFVRHSEKAAEEAYTRTTRALHERFDRLERMLDDNRR
modifications: peptide bond between residues 75 and 76 (Thr75-Val76, the 4' amide bond) replaced with an ester linkage
As for B1, the “stoichiometry N” value in data set [1] amounted to 4.

B2: KcsA V76ester channel, truncated for crystallization (domain or fragment, UniProt P0A334 1-125, looked up)
chain: MPPMLSGLLARLVKLLLGRHGSALHWRAAGAATVLLVIVLLAGSYLAVLAERGAPGAQLITYPRALWWACETATTVGYGDLCPVTLWGRLVAVVVMVAGITSFGLVTAALATWFVGREQERRGHF
modifications: peptide bond between residues 75 and 76 (Thr75-Val76, the 4' amide bond) replaced with an ester linkage
As for B2, the binding result in data set [2] is listed as “binds”.
